{
  "source": "paper PMC4451617",
  "key": {"[1]": {"target": "ErbB4 receptor (rat (endogenous in rat brain membranes and cultured rat hippocampal neurons))", "sequence (Q62956 26-1308)": "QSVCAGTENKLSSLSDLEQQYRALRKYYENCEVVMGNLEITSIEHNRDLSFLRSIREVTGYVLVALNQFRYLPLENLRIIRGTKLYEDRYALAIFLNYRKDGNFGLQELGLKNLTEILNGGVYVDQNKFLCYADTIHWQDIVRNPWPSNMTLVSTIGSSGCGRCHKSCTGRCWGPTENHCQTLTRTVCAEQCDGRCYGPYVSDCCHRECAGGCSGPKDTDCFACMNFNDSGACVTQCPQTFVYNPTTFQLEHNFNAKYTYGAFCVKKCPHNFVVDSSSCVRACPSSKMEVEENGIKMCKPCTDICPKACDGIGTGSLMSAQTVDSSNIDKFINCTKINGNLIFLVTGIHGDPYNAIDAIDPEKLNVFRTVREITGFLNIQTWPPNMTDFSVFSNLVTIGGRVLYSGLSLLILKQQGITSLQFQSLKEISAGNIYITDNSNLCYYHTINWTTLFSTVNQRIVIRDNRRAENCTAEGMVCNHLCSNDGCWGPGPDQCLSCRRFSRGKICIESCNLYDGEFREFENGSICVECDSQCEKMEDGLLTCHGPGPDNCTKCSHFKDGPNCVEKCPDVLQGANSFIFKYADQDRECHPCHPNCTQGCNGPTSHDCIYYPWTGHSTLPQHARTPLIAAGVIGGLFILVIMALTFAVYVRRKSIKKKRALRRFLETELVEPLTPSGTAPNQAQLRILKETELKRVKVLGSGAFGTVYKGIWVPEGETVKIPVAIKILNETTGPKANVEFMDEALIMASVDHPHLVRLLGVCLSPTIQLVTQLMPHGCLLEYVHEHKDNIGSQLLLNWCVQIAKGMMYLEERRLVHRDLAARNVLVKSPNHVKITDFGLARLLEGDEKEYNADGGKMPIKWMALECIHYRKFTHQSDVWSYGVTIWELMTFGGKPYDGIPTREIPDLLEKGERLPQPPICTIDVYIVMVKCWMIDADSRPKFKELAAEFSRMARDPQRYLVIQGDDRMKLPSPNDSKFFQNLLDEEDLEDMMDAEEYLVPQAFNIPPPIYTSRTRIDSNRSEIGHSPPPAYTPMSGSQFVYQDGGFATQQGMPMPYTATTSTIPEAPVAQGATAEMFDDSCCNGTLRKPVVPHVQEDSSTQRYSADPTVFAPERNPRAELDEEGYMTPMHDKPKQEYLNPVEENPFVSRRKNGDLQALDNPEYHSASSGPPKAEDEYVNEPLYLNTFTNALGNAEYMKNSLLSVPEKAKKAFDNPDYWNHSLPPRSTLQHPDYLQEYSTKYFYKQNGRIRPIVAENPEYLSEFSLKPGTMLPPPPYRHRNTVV", "assay": "co-IP; ErbB4 immunoprecipitated with mAB10 from lysates (PBS + 1% TX-100) of cultured rat hippocampal neurons (>DIV 28), unstimulated or 10 nM NRG2 for 10 min; western blot, densitometric ratio of glutamate receptor subunit over ErbB4"}, "[2]": {"target": "ErbB4 receptor (rat (endogenous in rat brain membranes and cultured rat hippocampal neurons))"}},
  "data": [
    {"substance": "GluN2B subunit of the NMDA receptor (from UniProt Q00960 27-1482)", "values": [
      {"measurement": "co-immunoprecipitation after NRG2, % of unstimulated controls (% of controls)", "setting": "[1]", "result": 198}
    ]},
    {"substance": "recombinant NRG2-ECD (neuregulin 2 extracellular domain) (ligand)", "values": [
      {"measurement": "whole-cell NMDA-evoked currents (100 μM NMDA, +40 mV) in ErbB4+ cultured hippocampal interneurons after 10 min of 10 nM NRG2, relative to baseline; ErbB4-negative neurons not affected (% of baseline)", "setting": "[2]", "result": 43}
    ]}
  ]
}
